From patent publication US20050079613A1, “Downregulation of cell surface glycoproteins by a family of human ubiquitin ligases” (Oregon Health & Science University, priority 2002, published 2005)
Entries after “also recorded” stand apart in the source; their conditions may differ.

B1: ICPO: purified RING domain (amino acids 1-241) of herpes simplex ICP0 as GST fusion, positive control (protein)
chain: MEPRPGASTRRPEGRPQREPAPDVWVFPCDRDLPDSSDSEAETEVGGRGDADHHDDDSASEADSTDTELFETGLLGPQGVDGGAVSGGSPPREEDPGSCGGAPPREDGGSDEGDVCAVCTDEIAPHLRCDTFPCMHRFCIPCMKTWMQLRNTCPLCNAKLVYLIVGVTPSGSFSTIPIVNDPQTRMEAEEAVRAGTAVDFIWTGNQRFAPRYLTLGGHTVRALSPTHPEPTTDEDDDDLDD
modifications: left off: a dimerising Fc or GST
notes: purified RING domain (amino acids 1-241) of herpes simplex ICP0 as GST fusion, positive control
B2: MARCH-I: human membrane-associated RING-CH transmembrane ubiquitin ligase, SEQ ID NOS:39 and 54; expressed by transfection or as GST-RING-CH domain (protein, listed as Homo sapiens)
chain: MTSSHVCCNFLNMWKKSKISTMYYLNQDAKLSNLFLQASSPTTGTAPRSQSRLSVCPSTQDICRICHCEGDEESPLITPCRCTGTLRFVHQSCLHQWIKSSDTRCCELCKYDFIMETKLKPLRKWEKLQMTTSERRKIFCSVTFHVIAITCVVWSLYVLIDRTAEEIKQGNDNGVLEWPFWTKLVVVAIGFTGGLVFMYVQCKVYVQLWRRLKAYNRVIFVQNCPDTAKKLEKNFSCNVNTDIKDAVVVPVPQTGANSLPSAEGGPPEVVSV
B3: MARCH-VIII: human membrane-associated RING-CH ubiquitin ligase, SEQ ID NOS:53 and 61 (protein, listed as Homo sapiens)
chain: MSMPLHQISAIPSQDAISARVYRSKTKEKEREEQNEKTLGHFMSHSSNISKAGSPPSASAPAPVSSFSRTSITPSSQDICRICHCEGDDESPLITPCHCTGSLHFVHQACLQQWIKSSDTRCCELCKYEFIMETKLKPLRKWEKLQMTSSERRKIMCSVTFHVIAITCVVWSLYVLIDRTAEEIKQGQATGILEWPFWTKLVVVAIGFTGGLLFMYVQCKVYVQLWKRLKAYNRVIYVQNCPETSKKNIFEKSPLTEPNFENKHGHGICHSDTNSSCCTEPEDTGAEIIHV
B4: MARCH-III: human membrane-associated RING-CH ubiquitin ligase, SEQ ID NOS:43 and 56 (protein, listed as Homo sapiens)
chain: MTTSRCSHLPEVLPDCTSSAAPVVKTVEDCGSLVNGQPQYVMQVSAKDGQLLSTVVRTLATQSPFNDRPMCRICHEGSSQEDLLSPCECTGTLGTIHRSCLEHWLSSSNTSYCELCHFRFAVERKPRPLVEWLRNPGPQHEKRTLFGDMVCFLFITPLATISGWLCLRGAVDHLHFSSRLEAVGLIALTVALFTIYLFWTLVSFRYHCRLYNEWRRTNQRVILLIPKSVNVPSNQPSLLGLHSVKRNSKETVV
B5: full-length MARCH-IV: MARCH-IV full length, which contains an N-terminal extension of 63 amino acids (protein)
chain: WYCYGLCAPAPQMLRHQGLLKCRCRMLFNDLKVFLLRRPPQAPLPMHGDPQPPGLAANNTLPALGAGGWAGWRGPREVVGREPPPVPPPPPLPPSSVEDDWGGPATEPPASLLSSASSDDFCKEKTEDRYSLGSSLDSGMRTPLCRICFQGPEQGELLSPCRCDGSVKCTHQPCLIKWISERGCWSCELCYYKYHVIAISTKNPLQWQAISLTVIEKVQVAAAILGSLFLIASISWLIWSTFSPSARWQRQDLLFQICYGMYGFMDVVCIGLIIHEGPSVYRIFKRWQAVNQQWKVLNYDKTKDLEDQKAGGRTNPRTSSSTQANIPSSEEETAGTPAPEQGPAQAAGHPSGPLSHHHCAYTILHILSHLRPHEQRSPPGSSRELVMRVTTV

Key:
ubiquitin = assay: In vitro ubiquitination assay with GST-fused RING-CH (PHD) domains, E1, E2 panel, anti-ubiquitin immunoblot; type: biochemical; details: for ubiquitin ligase activity with UbCH5a: E2 = UbCH5a; for ubiquitin ligase activity with MmUbc6: E2 = murine MmUbc6
Protocol: Ubiquitination assay. UbCH2 and UbCH3 were obtained from Boston Biochem. (His)6-UbCH5a and GST fusion proteins were expressed in BL21-DE3 cells (Stratagene) and BL21 cells (Amersham), respectively, and purified as previously described (Boutell, C., S. Sadis and R. D. Everett, J. Virol. 76:841-850, 2002; Tiwari, S. and A. M. Weissman, J. Biol. Chem. 276:16193-16200, 2001). Purified E3 proteins were stored at 4° C., and E2 proteins were stored at −80° C. In vitro reaction mixtures (20 μl total) included: 50 nM rabbit E1 (Boston Biochem), 28 μM Ubiquitin, 5 mM ATP, 50 mM Tris-HCl pH 7.5, 50 mM NaCl, and 2 mM DTT. E2 enzymes were used at concentrations varying from 0.1 to 2.3 μM, and E3 concentrations ranged from 3 to 30 μM. After 90 minutes of incubation at 30° C., reactions were stopped by boiling in SDS sample buffer. Samples were electrophoresed through 12% polyacrylamide SDS gels and blotted using anti-ubiquitin mouse antibody, P4D1 (Santa Cruz Biotech).
In vitro reaction mixtures (20 μl total) included: 50 nM rabbit E1 (Boston Biochem), 28 μM Ubiquitin, 10 mM ATP, 50 mM Tris-HCl pH 7.5, 50 mM NaCl, and 2 mM DTT. E2 enzymes were used at concentrations varying from 0.7 to 2.3 μM, and E3 concentrations ranged from 3 to 25 μM. After 90 minutes of incubation at 30° C., reactions were stopped by addition of 4×reducing sample buffer. Samples were electrophoresed through 12% SDS gels and blotted using anti-ubiquitin mouse antibody (Santa Cruz Biotech).
To examine if the RING-CH domains of MARCH-I and MARCH-II would act as ubiquitin ligases in vitro, DNA fragments encoding the amino-terminal RING-CH-domain of both proteins were fused to Glutathione-S-transferase. The resulting constructs were sequence confirmed and expression of GST-MARCH protein verified by immunoblot. The GST-fusion protein was expressed and purified from E. coli cultures using Glutathione-columns. The ICP0-RING-domain was also purified, in parallel with the MARCH-I and MARCH-II constructs. A panel of E2 enzymes was either purchased from commercial sources or purified either by nickel-chelate chromatography or on glutathione columns. All E2-enzymes formed mercapto-ethanol-sensisitve complexes with ubiquitin thus showing ubiquitin conjugating activity. Purified ubiquitin and E1 was obtained from commercial sources.
To examine if the RING-CH domains of MARCH proteins act as ubiquitin ligases in vitro, a DNA fragment encoding the amino-terminal RING-CH-domains of MARCH-I, II, IV and VIII were fused to Glutathione-S-transferase (GST) for bacterial expression. The GST-fusion proteins were purified from E. coli cultures using Glutathione-sepharose-columns. Approximately thirty E2 proteins are found in the human genome compared to only one E1 enzyme (Pickart, 2001, supra). […] The specificity and selectivity of E3s with respect to E2s, however, is not well characterized. To cover a spectrum of E2s, a panel of E2 enzymes (Mansouri et al., 2003, supra) was acquired. The various E2 enzymes were incubated with or without the RING-CH-GST fusions in the presence of ubiquitin, ATP, E1. The formation of multiubiquitin-adducts was examined by immunoblotting with antibodies against ubiquitin.

HLA class I (MHC I) = assay: Surface expression of endogenous MHC I on transfected HeLa cells, flow cytometry; type: cell-based, human; details: HeLa cells transfected with MARCH plasmid and GFP, 24 h post-transfection
Protocol: (§1) Flow cytometry. Cells were removed from tissue culture dishes with 0.05% Trypsin-EDTA (Invitrogen), washed with ice-cold PBS, and incubated with appropriate antibody for 30 minutes at 4° C. The cells were washed with ice-cold PBS and either resuspended in ice-cold PBS or incubated with PE-conjugated anti-mouse secondary antibody (DAKO) and washed again before analysis with a BD Biosciences (San Jose, Calif.) FACScalibur flow cytometer.
(§2) The ability to downregulate MHC I is common to KSHV-K3, KSHV-K5, MHV68-K3 and MV-M153R (Coscoy and Ganem, 2000, supra; Guerin et al., 2002, supra; Ishido et al., 2000b supra; Stevenson et al., 2000, supra). Additional substrates are ICAM-1 and B7.2 (but not B7.1) for KSHV-K5, as well as CD95 and CD4 for M153R (Coscoy and Ganem, 2001, supra; Guerin et al., 2002, supra; Ishido et al., 2000a, supra; Mansouri et al., 2003, supra). Since only low copy numbers were detected in HeLa cells for transcripts corresponding to each of the MARCH-proteins (FIG. 7C, and data not shown), HeLa cells were transfected with expression plasmids for MARCH-I, II, III, IV, V and VIII. Surface expression of selected glycoproteins was monitored upon transfection. The following known substrates for viral K3-family members were tested: Fas (CD95) and HLA class I (MHC I), both of which are endogenously expressed in HeLa cells, as well as transfected HLA-A2.1 or CD4. […] Surface expression of the respective markers was analyzed by flow cytometry. GFP was used to identify transfected cells.
With regards to whether MHC I downregulation by MARCH-IV was only observed at very high expression levels, since the viral immune evasion genes seem to be dedicated to MHC I downregulation, MHC I expression was compared at different expression levels of MARCH-IV or KSHV-K5 by taking advantage of the tetracycline-regulatable system to partially express either protein (Gossen, M. and H. Bujard, Proc. Natl. Acad. Sci. USA 89:5547-5551, 1992). Tet-off HeLa cells were transfected with either MARCH-IV or with KSHV-K5 in the presence of increasing amounts of tetracycline to shut off transcription. […]

transferrin receptor = assay: Surface expression of transferrin receptor on transfected HeLa cells, flow cytometry; type: cell-based, human; details: HeLa cells transfected with MARCH plasmid and GFP, 24 h post-transfection
Protocol: as §1
Cells were transfected with appropriate plasmids as well as GFP to track transfection efficiency. […]
The ability to downregulate MHC I is common to KSHV-K3, KSHV-K5, MHV68-K3 and MV-M153R (Coscoy and Ganem, 2000, supra; Guerin et al., 2002, supra; Ishido et al., 2000b supra; Stevenson et al., 2000, supra). […] Since only low copy numbers were detected in HeLa cells for transcripts corresponding to each of the MARCH-proteins (FIG. 7C, and data not shown), HeLa cells were transfected with expression plasmids for MARCH-I, II, III, IV, V and VIII. Surface expression of selected glycoproteins was monitored upon transfection. […] Surface expression of the respective markers was analyzed by flow cytometry. […]

HLA-A2.1 = assay: Surface expression of co-transfected HLA-A2.1 constructs on HeLa cells, flow cytometry; type: cell-based, human
Protocol: as §1, §2
The most likely targets for ubiquitination on transmembrane glycoproteins are lysines in the cytoplasmic tail. To examine the role of lysines for MHC I and CD4 downregulation by MARCH-IV, a panel of constructs derived from the human MHC I molecule HLA-A2.1 and a lysine-deleted version of CD4 (Mansouri et al., 2003, supra) were used. In addition to MARCH-IV, MARCH-VIII was included in this analysis since it reduced HLA-A2.1 surface expression (FIG. 10A). […] To rule out the possibility that these mutations changed the target molecules in such a way that they are no longer recognized by MARCH-IV or VIII, a lysine residue into a HA-tag at the carboxyterminal end of HLA-A2.1 was introduced.

[1] = test system: Fas (CD95), MHC I, HLA-A2.1, CD4, transferrin receptor, B7.1; assay: Surface glycoprotein panel on transfected HeLa cells, flow cytometry; type: cell-based, human; details: HeLa cells transfected with MARCH plasmid
Protocol: as §1
The ability to downregulate MHC I is common to KSHV-K3, KSHV-K5, MHV68-K3 and MV-M153R (Coscoy and Ganem, 2000, supra; Guerin et al., 2002, supra; Ishido et al., 2000b supra; Stevenson et al., 2000, supra). Additional substrates are ICAM-1 and B7.2 (but not B7.1) for KSHV-K5, as well as CD95 and CD4 for M153R (Coscoy and Ganem, 2001, supra; Guerin et al., 2002, supra; Ishido et al., 2000a, supra; Mansouri et al., 2003, supra). Since only low copy numbers were detected in HeLa cells for transcripts corresponding to each of the MARCH-proteins (FIG. 7C, and data not shown), HeLa cells were transfected with expression plasmids for MARCH-I, II, III, IV, V and VIII. Surface expression of selected glycoproteins was monitored upon transfection. […] Surface expression of the respective markers was analyzed by flow cytometry. […]

| Molecule | ubiquitin ligase activity with UbCH5a (ubiquitin) | ubiquitin ligase activity with MmUbc6 (ubiquitin) | surface expression of MHC I (HLA class I (MHC I)) | surface expression of transferrin receptor (TfR) (transferrin receptor) | also measured |
| --- | --- | --- | --- | --- | --- |
| B1 | promoted the formation of high-molecular weight complexes | some activity | – | – | – |
| B2 | more active | only active with MmUbc6 | no effect | reduced the surface levels of transferring receptor; also recorded: Some reduction; also recorded: strong downregulation | surface expression of MHC I (HLA class I (MHC I); listed as MARCH I): No significant MHC I downregulation; formation of high molecular weight ubiquitinated complexes with the E2 enzymes tested (ubiquitin; GST-RING-CH fusion, E2 panel overall): less active with most E2 enzymes tested |
| B3 | – | – | reduced the surface expression of MHC I; also recorded: down regulated | almost complete elimination; also recorded: down regulated | downregulation of HLA-A2.1 with a lysine re-introduced into the C-terminal HA-tag (HLA-A2.1; HeLa cells): restored downregulation; surface expression of transfected HLA-A2.1 (HLA-A2.1; HeLa cells co-transfected with HLA-A2.1 and MARCH plasmid): reduced; downregulation of HLA-A2.1 with lysines removed from the tail (HLA-A2.1; HeLa cells, lysine-less HLA-A2.1 construct): resistant |
| B4 | – | – | – | – | reduction in surface levels of any of the glycoproteins of the panel [1]: No reduction in surface levels |
| B5 | – | – | downregulates MHC I | – | – |
